Results taken from US20230054956A1 (VANDERBILT UNIVERSITY, published 2023).

B1: NORO-303 (antibody, V domains shown)
VH: QVQLVESGGGVVQPGRSLRLSCAASGFIFSSYAMHWVRQAPGKGLEWVAVMSYDGNNKYYADSVKGRFTISRDNSKNTLFLQMNSLRPEDTAVYYCARDCRVGWVFTYGMDVWGQGTLVTVSS
VL: QSALTQPPSASGSPGQSVTISCTGTSSDVGGYNYVSWYQQHPGKAPKLMMYEISKRPSGVPIRFSGSKSGNTASLTVSGLQAEDEADYYCSSYAGTYNCVVFGGGTKLTVL
B2: NORO-256A (antibody, V domains shown)
VH: QVQLVESGGGVVQAGRSLRLSCAASGFTFRSYGMHWVRQAPGKGLEWVAIISYDGGSKYYADSVKGRFTISRDNSKNTLYLQMNSLRVEDTALYYCAKDFLRVYSYGWHSFDIWGLGTLVTVSS
VL: QSVLTQPPSVSAAPGQRVTISCSGSSSNIGTYYVSWYQHLPGTAPKLLIYDNDKRPSGIPDRFSASKSGTSATLDIAGLQTGDEADYYCGTWDLSLTAGWVFGGGTKLTVL
B3: NORO-312A (antibody, V domains shown)
VH: QVQLVESGGALVKPGESLRLSCAASGFTFSDSYMSWIRQAPGKGLEWVAYISGIMSSTNYADSVKGRFTISRDNGKNSVYLQMNNLRAEDTAVYYCARDAQYCSGGRCYLVFDYWGQGTLVTVSS
VL: QSVLTQPPSVSGAPGQRVTISCTGSSSNIGAGYEVHWYQQLPGAAPKLIIYGNNNRPSGVPDRFSGSKSGTSASLAITGLQADDEADYYCQSYDNRLRVFGGGTKLTVL
B4: NORO-273A (antibody, V domains shown)
VH: QVQLVQSGAEVKKPGASVKISCKASGYDFTSFPMHWVRLGPGQRLEWMGWISAANGNTKYSQKFQDRFTITRDTSASIVHMELSSLRSEDTAVYYCARGGYSSGLYRYSNYYYGMTVWGQGTLVTVSS
VL: DIVMTQTPLSLSVTPGQPASISCKSSESLLHNDRKTYLFWYLQKPGQPPQLLIFQVSNRFSGVPDRFSGSGSGTDFTLRISRVEAEDVGIYYCLQTTQLPLTFGGGTKVEIK
B5: NORO-202A.1 (antibody, V domains shown)
VH: QVQLVQSGAEVKKPGASVKVSCKASEYTFTGYYLQWVRQAPGHGLEWMGWINPSGGTKYSQKFQGRVTMTRDTSITTVYMELSRLRSDDTAVYYCARDLLRNWGDHDAFDVWGQGTMVTVSS
VL: QSVLTQPPSASETPGQGVTISCSGSSSNIGSNFVCWYQQVPGTAPKLLIYKNNQRPSGVPDRFSGSKSGTSASLAISGLRSEDEADYYCSAWDDSLSGPVFGGGTKLTVL
B6: NORO-250B (antibody, V domains shown)
VH: QVQLVESGGGLVKPGGSLTLSCAASGFTFSDYYMNWIRQAPGKRLEWVSYISGIMSSTNYADSVKGRFTISRDTAKKSVYLQMNSLRAEDTAVYYCARATSQGATSYYFDSWGQGTLVTVSS
VL: QSVLTQPPSVSGAPGQRVTISCTGSSSNIGADYDVHWYQQLPGAAPRLLIYADINRPSGVPDRFSGSKSGTSASLAITGLQAEDEADYYCQSYDRSVSGSAVFGGGTKVTVL
B7: NORO-313.1 (antibody, V domains shown)
VH: QVQLVESGGGLVKPGGSLRLSCAASGFTFSDFYMSWIRQAPGKGLEWVGYISSIAGATNYADSVKGRFTISRDSSKRSLYLQMNSLRVEDTAVYYCARMGRLELERRPHYYYPLDVWGQGTLVTVSS
VL: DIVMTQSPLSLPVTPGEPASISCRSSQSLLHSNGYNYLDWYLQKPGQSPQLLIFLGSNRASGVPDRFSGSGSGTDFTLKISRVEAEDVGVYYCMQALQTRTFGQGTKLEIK
B8: NORO-317 (antibody, V domains shown)
VH: QVQLVESGGGLVKPGGSLRLSCVASGFTFSDYYISWVRQAPGKGLEWVSYISAINSYTNYADSVRGRFTVSRDNAKKSVFLQMNSLRVDDTAVYYCARDVGGSVRYSSNSNKKSYNYFDPWGQGTLVTVSS
VL: SYELTQPPSVSVSPGQTATITCSGDVLSKEFAYWYQQKPGQAPVLVIYKDNERPSGIPERFSGSTSGTTVTLTISGVLAEDEAHYYCQSVDTRGTYKVFGGGTKLTVL
B9: NORO-315B (antibody, V domains shown)
VH: QVQLVESGGGLVKPGGSLRLSCVASGFTFSDYYMTWFRQTPGRGLEWLSYISAIGGYTEYADSVKSRFIISRDNGKKSLYLQMNSLRAEDSGVYYCAREDCHGTSCYSGDWGQGTLVTVSS
VL: QSVLTQPPSVSGAPGQRVTISCTGSSSNIGAGYDVHWYQQLPGTAPKLLIYHNTNRPSGVPDRFSGSKSGTSAYLTITGLQAEDEADYYCQSYDRSLSKSRVFSGGTKLTVL
B10: NORO-296A (antibody, V domains shown)
VH: QVQLVESGGGLVKPGGSLRLSCAASGFTFSEYYMSWVRQAPGKALEWVSYITSSFSSTSYADSVKGRFVISRDNAKNSLYLQMNSLRVEDTAVYYCARYGAEYGSRSFYFLDWGQGTLVTVSS
VL: QSVLTQPPSVSGAPEQRVTISCTGSSSNIGAGYDVHWYQVLPGIAPKLLIYDNNKRPSGVPDRFSGSKSGTSASLAITGLQAEDEADYYCQSYDSRLSSNVVFGGGTKLTVL
B11: NORO-278 (antibody, V domains shown)
VH: QVQLVESGGGVVQPGRSLRLSCAASGFTFSSYGMHWVRQAPGKGLEWVAVISYDGSNKYYADSVKGRFTISRDNSKNTLYLQMNSLRAEDTAVYYCAKVTIIAAADLLDYWGQGTLVTVSS
VL: QSVLTQPPSVSGAPGQRVTISCTGSSSNIGAGYDVHWYQQLPGTAPKLLIYGNSNRPSGVPDRFSGSKSGTSASLAITGLQAEDEADYYCQSYDSSLSGPVVFGGGTKLTVL
B12: NORO-310A (antibody, V domains shown)
VH: EVQLVESGGGLVRPGESLRLSCVASGFSVSDNYMSWVRQAPGKGLQWVSVIYSGGTTFYTDSVKGRFTISRDKSKNTLFLQMNSLRAEDTAVYFCTRDPSQYYDSRGHYYQTFTPSFDSWGQGTLVTVSS
VL: DIQMTQSPSVMSASVGDRVTITCRASQDISDYLAWFQQKPGKVPKRLIYAASSLQNGVPSRFSGSGSGTEFTLTISSLQPEDFATYYCLQHDTYPLTFGGGTKVEIK
B13: NORO-279A (antibody, V domains shown)
VH: QVQLVESGGGVVQPGRSLRLSCAASGFTFTKYGMHWVRQAPGKGLEWVAFIAYDGSVKYYGDSAKGRFAISRDNPKNTVYLQMNSLRAEDTAVYYCAKVEIHYYSNSLLGMDVWGQGTLVTVSS
VL: QSVLTQPPSASGTPGQRVTISCSGGNSNIGISYVYWYQHLPGTAPKLLISKNNLRPSGVPDRFSASKSGTSASLAISGLRSEDEAEYYCATLDINMTWVFGGGTKLTVL
B14: NORO-263 (antibody, V domains shown)
VH: QVQLVESGGGLVKPGGSLRLSCAASGFTLSDYYMSWIRQAPGKGLEWVAYISSSHTSTYYRDSVKGRFTISRDSAKKSLYLQMNSLRVEDTAIYYCARDWVGGRSAYSDHWGQGTLVTVSS
VL: SYELTQPPSVSVSPGQTARITCSGDALPRRPAFWYQQKSGQAPVLVMYDDSKRPSGIPERFSGSSSGTVATLTISGAQVEDEADYHCYSTDSSGKERVFGGGTKLTVL
B15: NORO-123 (antibody, V domains shown)
VH: QVQLVESGGGVVQPGRSLRLSCSTSGFTFSQYPMHWVRQAPGKGLEWVALISYDGMNKYYADSVRGRFTISRDNSENTQYLQMNSLRGDDTAVYYCARVTGDCTGNRCSYWAYYYYGLDVWGQGTLVTVSS
VL: QSALTQPPSASGSPGQSVTISCTGTSSDVGGYKYVSWYQQHPGKAPKLMIYEVTRRPSGVPDRFSGSKSGNTAFLTVSGLQAEDEADYYCGSYAGSTTSGYVFGTGTKVIVL
B16: NORO-251A (antibody, V domains shown)
VH: QVQLVESGGGVVQPGRSLRLSCAASGFTFRSYGIHWVRQAPGKGLEWVALISYDGSSKYYADSVKGRFTISRDNSKNTLYLQMNSLRSEDTAVYYCAKVRLTSYSIGWFSFDYWGQGTLVTVSS
VL: QSVLTQPPSVSAAPGQKVTISCSGSSSNIANYYVSWYQQLPGRAPKLLIYDNNKRPSGIPDRISGSKSGTSATLGITGLQTGDEADYYCGTWDTSLSAWVFGGGTKLTVL

Each binder was assayed against GII.4 Sydney 2012 virus-like particles (VLPs), based on strain AFV08795.1 (human norovirus GII.4 Sydney 2012, UniProt P54635 1-538, The particle is a multimeric assembly of VP1 with a little VP2 inside; one VP1 chain is given.) (assay: indirect ELISA, VLP coated).
Work on B1 yielded an EC50 of 0.5 µg/mL.
B2 was tested, and the EC50 was 0.9 µg/mL.
For B3, the EC50 was 0.4 µg/mL.
Binder B4 has an EC50 of 0.2 µg/mL.
Work on B5 yielded an EC50 of 0.4 µg/mL.
For B6, the EC50 was 0.2 µg/mL.
Binder B7 has an EC50 of 0.1 µg/mL.
In the case of B8, the EC50 is reported as 0.4 µg/mL.
In the case of B9, the EC50 is reported as 0.7 µg/mL.
With B10 the EC50 was 0.6 µg/mL.
With B11 the EC50 was 4 µg/mL.
B12 gave an EC50 of 6.2 µg/mL.
B13 was tested, and the EC50 was 0.2 µg/mL.
Binder B14 has an EC50 of 0.6 µg/mL.
Binder B15 has an EC50 of 5.4 µg/mL.
B16 gave an EC50 of 0.9 µg/mL.
